Source: US6849258

Key:
[1] = target: human CD2 (CD2 antigen on human PBMC, on COS cells transfected with the entire CD2 molecule, and on CD2-expressing Jurkat cells) (human) (UniProt P06729); assay: two-colour flow cytometry of human PBMC, biotinylated LO-CD2a (FL1) and Leu-5b-PE (FL2); upper right quadrant
[2] = target: human CD2 (CD2 antigen on human PBMC, on COS cells transfected with the entire CD2 molecule, and on CD2-expressing Jurkat cells) (human) (UniProt P06729); assay: two-colour flow cytometry of human PBMC, biotinylated LO-CD2a (FL1) and Leu-5b-PE (FL2); upper left quadrant

UniProt P06729, sequence (P06729 25-351): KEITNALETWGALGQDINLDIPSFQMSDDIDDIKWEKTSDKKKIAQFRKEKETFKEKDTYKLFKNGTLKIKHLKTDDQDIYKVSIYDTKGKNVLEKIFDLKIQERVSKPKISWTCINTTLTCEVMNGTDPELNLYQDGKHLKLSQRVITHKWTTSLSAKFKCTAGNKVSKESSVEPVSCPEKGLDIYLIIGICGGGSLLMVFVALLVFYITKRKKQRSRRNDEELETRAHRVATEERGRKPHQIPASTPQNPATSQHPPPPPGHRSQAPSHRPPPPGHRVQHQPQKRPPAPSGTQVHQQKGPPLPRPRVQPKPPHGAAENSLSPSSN

Q: Which results are given for “Leu-5b, mouse anti-human CD2 monoclonal antibody (Becton Dickinson)”?
A: Y mean (quadrant 2UR) [1]: 631; % gated (quadrant 1UL) [2]: 23.2%; Y mean (quadrant 1UL) [2]: 285
